This note sets out measurements from patent US20110201549A1 (UNIVERSITY OF GEORGIA RESEARCH FOUNDATION, published 2011).

The target of the assay is T1, chymotrypsin-treated Cry3Bb (Bacillus thuringiensis, UniProt Q06117 162-652).
T1 construct: Insecticidal Cry toxin; It was coated on microtiter plates after chymotrypsin treatment; also called Cry3Bb protein; Cry3Bb toxin
T1 sequence: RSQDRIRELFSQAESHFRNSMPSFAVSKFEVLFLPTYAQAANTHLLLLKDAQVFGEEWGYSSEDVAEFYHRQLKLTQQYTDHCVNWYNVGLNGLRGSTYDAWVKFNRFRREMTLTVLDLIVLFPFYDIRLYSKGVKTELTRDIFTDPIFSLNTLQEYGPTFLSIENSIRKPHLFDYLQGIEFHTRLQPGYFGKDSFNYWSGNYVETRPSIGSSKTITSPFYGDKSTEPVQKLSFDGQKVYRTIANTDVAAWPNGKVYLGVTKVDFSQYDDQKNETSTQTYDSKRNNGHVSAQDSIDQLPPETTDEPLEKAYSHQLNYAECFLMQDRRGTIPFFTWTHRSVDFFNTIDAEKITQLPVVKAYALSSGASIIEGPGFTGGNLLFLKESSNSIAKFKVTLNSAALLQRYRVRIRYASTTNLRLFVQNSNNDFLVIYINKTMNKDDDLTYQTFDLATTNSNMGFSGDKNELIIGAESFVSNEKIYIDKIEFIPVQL
Description: ELISA-based microplate binding assay: plates coated with chymotrypsin-treated Cry3Bb, increasing concentrations of biotinylated TmCad1-TBR, streptavidin-HRP detection, one site saturation fit. How it is done:
FIG. 7 illustrates TmCad1-TBR binding to Cry3Bb (Panel A) and enhancement of Cry3Bb toxicity to lesser mealworm by TmCad1-TBR peptides (Panel B). In Panel A, TmCad1-TBR binding to Cry3Bb protein was determined using an ELISA-based binding assay. Microtiter plates were coated with chymotrypsin-treated Cry3Bb and then incubated with increasing various concentrations of biotinylated TmCad1-TBR peptide. Bound biotinylated TmCad1-TBR peptide was detected with a Streptavidin-HRP conjugate and substrate. Non-specific binding was determined in the presence of 1000-fold excess unlabeled TmCad1-TBR peptide. Each data point is the mean of two experiments done in duplicate. Error bars depict standard deviation. Binding affinities (Kd) were calculated based on specifically bound biotinylated TmCad1-TBR peptide using a one site saturation binding equation. […] Cry3Bb inclusions without or with and increased amount of TmCad1-TBR inclusions were applied to semi-solid diet. One 1st instar darkling beetle larva was applied per well and the bioassays was scored on day 3. No toxicity was observed when treated with TmCad1-TBR peptide alone.
We tested the possibility that TmCad1-TBR binds a coleopteran-active Cry toxins using a microplate binding assay described previously (Zhang et al. 2008). […] TmCad1-TBR also enhances Cry3Bb toxicity to A. diaperinus larvae (FIG. 7A).
In general terms: In an ELISA, binding on a coated surface is turned into a signal by an enzyme label.

B1: TmCad1-TBR cadherin fragment from the Tenebrio molitor cadherin (T. molitor cadherin Toxin Binding Region) (receptor)
chain: MKQWYQRRVAITAGKDTTSKDKLQYNIDNITPSNLDLDIKSAFTMNTQSGDITINFEVKDSMEGYFTLDLSVQDEEPENHKADATLKIYIVTSKNTVVFRFENDQETVSDKAGDIKSVLDEEFQYETKVEAPTGNTTDGTPLTRSPVFFLNLNTNEPVDATEILKKVTNVDVFQRLKNNFSKVGLVLLSFDSSSETNENLEAHHHHHH
modifications: biotinylated (sites not given)
notes: also called CR12-MPED of TmCad1
B1 showed a Kd of 13 nM.

A word on the Kd: it is the concentration at which binding is half-saturated. Higher therefore signals weaker binding.
